In patent US10947270B2, “Targeted prodrug cytosine deaminase fusion carrier and application thereof” (National Yang-Ming University, priority 2015, dated 2021):

What was measured:
[1] = Relative substrate selectivity of cytosine deaminase enzyme for 5-FC and cytosine (formula 1); format: biochemical; settings: relative substrate selectivity to 5-FC
From the text: Evaluation of the relative substrate selectivity of cytosine deaminase enzyme for 5-FC and Cytosine can be expressed by the following formula 1,
The higher the value, the higher the selectivity of the enzyme to the 5-FC substrate.

[2] = Enzyme kinetic analysis of EcCD series fusion proteins, substrate cytosine; format: biochemical
From the text: FIGS. 11A-11D show the activity and kinetics analysis of EcCD series fusion protein enzymes, and the EcCD series proteins are combined with 5-FC at different concentrations for reaction. Respectively calculate the 5-FU formation reaction rate shown in FIG. 11A, 5-FC consumption reaction rate shown in FIG. 10B, uracil formation reaction rate shown in FIG. 10C and cytosine consumption reaction rate shown in FIG. 10D, substitute Michaelis-Menten formula, and calculate the base mass (Kcat) and Km value catalyzed by each mol enzyme in unit time. […]

integrin αvβ3 receptor = integrin αvβ3 receptor (Homo sapiens, UniProt P05106+P06756); assay: ELISA binding assay of yCD series recombinant protein to integrin αvβ3 receptor; settings: ELISA
Sequence of integrin αvβ3 receptor (P06756 31-889 limits assumed): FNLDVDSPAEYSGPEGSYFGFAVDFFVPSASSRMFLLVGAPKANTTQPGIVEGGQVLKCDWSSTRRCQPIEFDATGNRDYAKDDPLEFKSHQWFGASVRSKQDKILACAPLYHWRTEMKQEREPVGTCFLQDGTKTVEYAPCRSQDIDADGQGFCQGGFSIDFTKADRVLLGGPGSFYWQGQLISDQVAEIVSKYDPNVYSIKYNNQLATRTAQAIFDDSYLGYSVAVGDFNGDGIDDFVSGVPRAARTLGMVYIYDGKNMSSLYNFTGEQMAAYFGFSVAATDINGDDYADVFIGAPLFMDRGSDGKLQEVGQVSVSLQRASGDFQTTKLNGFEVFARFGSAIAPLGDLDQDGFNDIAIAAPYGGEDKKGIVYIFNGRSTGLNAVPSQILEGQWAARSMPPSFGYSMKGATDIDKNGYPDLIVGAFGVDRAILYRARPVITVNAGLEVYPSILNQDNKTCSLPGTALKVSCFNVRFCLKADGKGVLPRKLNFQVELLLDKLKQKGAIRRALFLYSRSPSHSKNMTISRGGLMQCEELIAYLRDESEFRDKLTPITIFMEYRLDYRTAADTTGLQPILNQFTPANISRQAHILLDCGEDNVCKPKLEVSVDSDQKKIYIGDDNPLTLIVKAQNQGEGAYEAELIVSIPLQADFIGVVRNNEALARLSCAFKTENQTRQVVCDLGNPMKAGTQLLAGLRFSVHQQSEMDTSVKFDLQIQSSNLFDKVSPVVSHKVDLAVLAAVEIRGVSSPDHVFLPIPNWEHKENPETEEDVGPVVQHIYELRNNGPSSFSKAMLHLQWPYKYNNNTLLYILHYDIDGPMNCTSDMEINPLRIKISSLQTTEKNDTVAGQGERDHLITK
Sequence of integrin αvβ3 receptor (P06756 891-1048 partner limits assumed): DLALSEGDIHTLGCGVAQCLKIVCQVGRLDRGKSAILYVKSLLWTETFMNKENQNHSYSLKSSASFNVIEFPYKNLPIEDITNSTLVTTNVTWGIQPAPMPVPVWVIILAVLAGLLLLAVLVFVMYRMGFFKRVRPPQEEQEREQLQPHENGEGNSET
Sequence of integrin αvβ3 receptor (P05106 27-788): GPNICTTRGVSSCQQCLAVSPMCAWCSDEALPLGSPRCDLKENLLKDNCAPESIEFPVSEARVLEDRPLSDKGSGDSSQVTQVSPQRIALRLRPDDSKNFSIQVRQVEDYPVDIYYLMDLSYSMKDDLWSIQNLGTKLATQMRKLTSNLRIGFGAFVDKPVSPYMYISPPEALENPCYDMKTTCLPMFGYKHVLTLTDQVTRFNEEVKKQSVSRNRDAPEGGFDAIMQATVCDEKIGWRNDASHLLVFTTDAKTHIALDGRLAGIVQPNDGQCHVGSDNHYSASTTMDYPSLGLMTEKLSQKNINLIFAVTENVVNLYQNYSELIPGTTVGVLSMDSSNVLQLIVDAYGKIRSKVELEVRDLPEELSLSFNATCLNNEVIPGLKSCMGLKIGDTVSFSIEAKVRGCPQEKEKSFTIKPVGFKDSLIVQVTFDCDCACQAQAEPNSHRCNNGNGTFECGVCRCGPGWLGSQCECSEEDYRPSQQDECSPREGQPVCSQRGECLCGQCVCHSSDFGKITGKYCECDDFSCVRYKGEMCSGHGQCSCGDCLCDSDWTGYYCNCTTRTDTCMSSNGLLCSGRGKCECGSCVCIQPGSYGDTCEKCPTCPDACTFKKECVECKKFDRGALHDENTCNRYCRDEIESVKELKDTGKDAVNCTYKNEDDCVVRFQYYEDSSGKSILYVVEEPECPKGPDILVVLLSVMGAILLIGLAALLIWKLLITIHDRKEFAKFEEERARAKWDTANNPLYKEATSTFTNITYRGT
Experimental: FIGS. 3A-3B show the binding affinity and specificity of RGD4C-yCD, yCD, RGD4C-yCD/UPRT and yCD/UPRT proteins to integrin αvβ3. The binding affinities of RGD4C-yCD, yCD, RGD4C-yCD/UPRT and yCD/UPRT proteins to integrin αvβ3 were determined by ELISA assay using horseradish peroxidase (HRP)-tagged anti-His6 antibody (FIG. 3A). The dissociation constant Kd is obtained by prism software with curve fitting method. […] (*compared with untreated RGDfv group, P<0.05)
The specific binding ability of RGD4C-yCD, yCD, RGD4C-yCD/UPRT and yCD/UPRT recombinant protein to integrin αvβ3 receptor is analyzed by ELISA binding assay, plotted with prism software and made with curve fitting to find the dissociation constant Kd value.

[3] = Enzyme stability of EcCD series fusion protein and yCD protein in FBS or transferrin; format: in vitro ADME; settings: 37° C.; for enzyme activity: 24 hours
Experimental: FIGS. 12A-12C show an enzyme stability analysis of EcCD series fusion protein and yCD protein.
Previous literature reports indicate that the thermostability of E. coli cytosine deaminase (EcCD) is better than that of yCD. […] In order to simulate the environment of the protein in the cell killing test, the EcCD series fusion protein and the yCD protein are cultured in 10% FBS at 37° C. for 0, 1, 2, 4, 24 hours, and then determine the enzyme kinetics. It can be observed from the results that the yCD protein is cultured in 10% FBS for 1 hour, the enzyme activity is reduced to 80%, and when cultured for 2 and 4 hours, the enzyme activity is reduced to 50% and 20%, respectively, and the enzyme activity is lost after culturing for 24 hours, while the EcCD series fusion protein is similar to the culture in 100% FBS, which can maintain the original enzyme activity (see FIG. 12B). The literature points out that the metal ion of the enzyme catalytic center will affect the stability of the enzyme. In the yCD protein involved in the enzyme reaction, the metal ion of the enzyme catalytic center has a considerable relationship with the enzyme activity. The protein associated with transporting metal ions in serum is transferrin. It is speculated that transferrin may be related to the enzyme activity of yCD protein. Therefore, the EcCD series fusion protein and yCD protein are co-cultured respectively with transferrin at a concentration of 3 mg/ml (normal concentration 2.1-3.4 mg/mL) at 37° C. for 0, 1, 2, 4, 24 hours, then determine the enzyme kinetics (see FIG. 12C), it is known from the results that the longer the yCD protein is cultured in the transferrin, the lower the enzyme activity will be. […] This trend is similar to the culture at 10% in FBS. It is speculated that the factor of reducing the activity of yCD protein in FBS has a great relationship with transferrin. The stability of yCD protein in FBS is poor, and the stability of EcCD series fusion protein is better, so the industrial use of EcCD series fusion protein in both sexual and therapeutic applications is better than that of yCD protein, and it is also confirmed that the mutation of RGD4C peptide and D314A will not affect the enzyme stability of EcCD protein.

[4] = Enzyme activity and kinetic analysis of yCD series recombinant proteins (5-FC converted into 5-FU); format: biochemical; settings: 50 nM protein
Experimental: FIGS. 2A-2B show the enzyme activities of RGD4C-yCD, yCD, RGD4C-yCD/UPRT and yCD/UPRT proteins to convert 5-FC to 5-FU. 50 nM of RGD4C-yCD, yCD, RGD4C-yCD/UPRT or yCD/UPRT protein reacted with increasing concentrations of 5-FC in phosphate buffered saline solutions. […] The measured data was used to plot the enzyme kinetic curve that takes the substrate concentration [S] as the x-axis and takes the initial reaction rate V0 as the y-axis,
The enzyme activity of 5-FC converted into 5-FU by RGD4C-yCD, yCD, RGD4C-yCD/UPRT and yCD/UPRT is performed. The recombinant protein concentration (50 nM) added with 5-FC at different concentrations. The 5-FC consumption and the generated amount of 5-FU is calculated. The measured data is taken as the x-axis by the substrate concentration [S]; the initial reaction rate V0 is the kinetic curve by making a diagramthe with y-axis (see FIG. 2A and FIG. 2B); the non-linear regression is made by the prism software according to the Michaelis-Menten equation; calculate the enzyme kinetic parameter Km and Vmax. […] It is speculated that the yCD function in each fusion protein is similar, but yUPRT may affect the effects of yCD and 5-FC.

binding to integrin αvβ3 (integrin αvβ3 receptor): cannot be bound
B1: yCD: yeast cytosine deaminase (yCD) (SEQ ID NO: 1), recombinant protein without target molecule (protein)
chain: MVVTGGMASKWDQKGMDIAYEEAALGYKEGGVPIGGCLINNKDGSVLGRGHNMRFQKGSATLHGEISTLENCGRLEGKVYKDTTLYTTLSPCDMCTGAIIMYGIPRCVVGENVNFKSKGEKYLQTRGHEVVVVDDERCKKIMKQFIDERPQDWFEDIGELEHHHHHH
modifications: yCD
[Kcat/Km(5-FC)]/{[Kcat/Km(cytosine)] + [Kcat/Km(5-FC)]} [1]: 0.771
Kcat ([2]; cytosine consumption): 55.6 ± 8.5 s⁻¹
Km ([2]; cytosine consumption): 4700 ± 1300 µM
Kcat ([2]; uracil generation): 54.6 ± 1.3 s⁻¹
Km ([2]; uracil generation): 3900 ± 200 µM
enzyme activity ([3]; 3 mg/ml transferrin): close to the loss of activity
enzyme activity (Kcat/Km relative to 0 hours) ([3]; 10% FBS, 1 hour): 80%
enzyme activity (Kcat/Km relative to 0 hours) ([3]; 10% FBS, 2 hours): 50%
enzyme activity (Kcat/Km relative to 0 hours) ([3]; 10% FBS, 4 hours): 20%
enzyme activity ([3]; 10% FBS): lost
Km ([4]; calculated by 5-FC consumption): 700 ± 100 µM
Vmax ([4]; calculated by 5-FC consumption): 175.8 ± 4.7 µM/min
Km ([4]; calculated by 5-FU formation): 1000 ± 100 µM
Vmax ([4]; calculated by 5-FU formation): 164.2 ± 4.7 µM/min
